The values below come from patent publication US9284543B2, “Neutral active soluble truncated PH20 polypeptides and uses thereof” (Halozyme, Inc., priority 2008, dated 2016).

Data set [1] has as its system CHO-S cells. In words: PI-PLC treatment of expressing cells, Western blot of media and cells. In kind it is cell-based, Chinese Hamster. The following applies: cells incubated with PI-PLC for 2 hours. The protocol: In this example, following transient expression, as described in Example 2 above, the media and cells were harvested separately and analyzed for PH20 expression and solublility by Western blot analysis. Solubility of the C-terminus truncation mutants was determined by examining whether the expressed protein was present in the growth media or in the cells. […] Cells expressing these mutants were treated with phosphoinositol-phospholipase C (PI-PLC), which cleaves the GPI-anchor allowing the release of soluble protein into the media, and the presence of PH20 in the resulting media and cells was determined by Western blot analysis.
Following expression of rHuPH20 in CHO—S cells for 72 hours, as described in Example 2A above, the media and cells were harvested separately. The cells were washed with serum-free media followed by the addition of 2 mL serum-free media per well. PI-PLC (0.5 units/well) was added to each well and the cells were incubated in the PI-PLC for 2 hours. The resultant media and cells were analyzed by Western blot analysis as described above.
Two plates each of rHuPH20 expressing CHO—S cells, one for treatment with PI-PLC and one without treatment with PI-PLC, were prepared for each C-terminus mutant as described in Example 2B above. Following expression for 48 hours, for cells untreated with PI-PLC, the media and cells were harvested separately. The harvested media was spun down, concentrated to a volume of 10 mL, and buffer exchanged into PBS using an Amicon 30 kD MWCO concentrator. The cells were rinsed with cold PBS and scraped and resuspended in 1.2 mL PBS with protease inhibitor Set III (Cat No. 539134, Calbiochem). The resuspended cells were briefly sonicated to prepare whole-cell extract. For PI-PLC treatment of cells, following expression for 48 hours, the untreated media was harvested, as described above. The cells were rinsed once with fresh CD DG44 medium with Glutamax-1, and the media was replaced with 12 mL fresh detergent free CD DG44 medium supplemented with Glutamax-1 with 3.0 units PI-PLC per dish, and the cells were incubated for 2 hours at 37° C. with 5% CO2. After 2 hours, the PI-PLC media and cells were harvested separately, as described above. The resultant untreated media and cells, and PI-PLC treated media and cells, were analyzed by Western blot analysis as described above.
In general terms: In western blotting, separated proteins are transferred to a membrane and probed.

Data set [2] relates to CHO-S cells. In words: Western blot analysis of PH20 expression in media and cells after transient expression. The following applies: media versus cells. In kind it is cell-based, Chinese Hamster. Put shortly:
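CHO-S cells were transiently transfected with mutant PH20-HZ24 plasmids using GeneJuice and expressed for 48-72 h at 37 °C, 5% CO2. Media and cells were harvested separately, with PI-PLC treatment used to release GPI-anchored protein. Non-reduced samples were blotted with rabbit anti-PH20 (0.5 μg/mL), and a band near 66 kDa was scored as PH20.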

A short description of data set [3]: Microtiter hyaluronidase activity assay with biotinylated-hyaluronic acid. In kind it is biochemical. The following applies: for pH 5.5 Activity / pH 7.4 Activity: 72 hour post transfection supernatant; for Hyaluronidase activity (in words): pH 7.4 and pH 5.5.
The nature of data set [4]: Triton X-114 partition assay. In kind it is physicochemical. The following applies: partition into aqueous phase of Triton X-114 at 37° C. As for the experimental part:
Solubility of a hyaluronidase can be determined by any method known to one of the skill in the art. One method for determining solubility is by detergent partitioning. […] For example, the solubility of the PH20 polypeptides described herein is assessed as described in Example 4. Membrane-anchored hyaluronidases, such as lipid-anchored hyaluronidases, including GPI-anchored hyaluronidases, will partition into the detergent-rich phase, but will partition into the detergent-poor or aqueous phase following treatment with Phospholipase C. Phospholipase C is an enzyme that cleaves the […] found in GPI-anchored proteins. Treatment with PLC will cause release of GPI-linked proteins from the outer cell membrane.
The samples were heated to 37° C. for 3 minutes to induce phase separation and centrifuged for 3 min at 4000 g at room temperature. Aqueous and detergent phases were removed for SDS-PAGE analysis and Western blotting. Rabbit anti-PH20 IgG (0.5 μg/mL) was used as the primary antibody and HRP-conjugated goat anti-Rabbit IgG (0.1 ng/mL, Cat#DC03L, EMD) was used as the secondary antibody. Full length human PH20, which partitions strongly into the detergent phase, was used as a control.

B1: SPAM1-VSIL: C-terminally truncated human PH20, precursor 499 aa (SEQ ID NO:7), mature 464 aa (SEQ ID NO:59) (protein, listed as Homo sapiens)
chain: LNFRAPPVIPNVPFLWAWNAPSEFCLGKFDEPLDMSLFSFIGSPRINATGQGVTIFYVDRLGYYPYIDSITGVTVNGGIPQKISLQDHLDKAKKDITFYMPVDNLGMAVIDWEEWRPTWARNWKPKDVYKNRSIELVQQQNVQLSLTEATEKAKQEFEKAGKDFLVETIKLGKLLRPNHLWGYYLFPDCYNHHYKKPGYNGSCFNVEIKRNDDLSWLWNESTALYPSIYLNTQQSPVAATLYVRNRVREAIRVSKIPDAKSPLPVFAYTRIVFTDQVLKFLSQDELVYTFGETVALGASGIVIWGTLSIMRSMKSCLLLDNYMETILNPYIINVTLAAKMCSQVLCQEQGVCIRKNWNSSDYLHLNPDNFAIQLEKGGKFTVRGKPTLEDLEQFSEKFYCSCYSTLSCKEKADVKDTDAVDVCIADGVCIDAFLKPPMETEEPQIFYNASPSTLSATMFIVSIL
modifications: mature HuPH20 36-499
On to B1, for which, in the data set on CHO-S cells [1], the “Expressed in Media Following Addition of PI-PLC” value is listed as “Initially in media”. Further, the “Expressed in Media” value in the data set on CHO-S cells [2] is on record as “YES”. For the same molecule, the “pH 5.5 Activity” value worked out at 0.045 Units/ml in data set [3] (Table 6) and 0.122 Units/ml in data set [3] (Table 6A). The “pH 7.4 Activity” value in data set [3] (Table 6) is listed as 0.02025 Units/ml; in data set [3] (Table 6A) it was 0.486 Units/ml. Besides, the “Hyaluronidase activity (in words)” value in data set [3] is “little detectable activity”. Besides, the Soluble entry in data set [4] is recorded as “YES”.

B2: SPAM1-IVSI: C-terminally truncated human PH20, precursor 498 aa (SEQ ID NO:49), mature 463 aa (SEQ ID NO:101) (protein, listed as Homo sapiens)
chain 1: MGVLKFKHIFFRSFVKSSGVSQIVFTFLLIPCCLTLNFRAPPVIPNVPFLWAWNAPSEFCLGKFDEPLDMSLFSFIGSPRINATGQGVTIFYVDRLGYYPYIDSITGVTVNGGIPQKISLQDHLDKAKKDITFYMPVDNLGMAVIDWEEWRPTWARNWKPKDVYKNRSIELVQQQNVQLSLTEATEKAKQEFEKAGKDFLVETIKLGKLLRPNHLWGYYLFPDCYNHHYKKPGYNGSCFNVEIKRNDDLSWLWNESTALYPSIYLNTQQSPVAATLYVRNRVREAIRVSKIPDAKSPLPVFAYTRIVFTDQVLKFLSQDELVYTFGETVALGASGIVIWGTLSIMRSMKSCLLLDNYMETILNPYIINVTLAAKMCSQVLCQEQGVCIRKNWNSSDYLHLNPDNFAIQLEKGGKFTVRGKPTLEDLEQFSEKFYCSCYSTLSCKEKADVKDTDAVDVCIADGVCIDAFLKPPMETEEPQIFYNASPSTLSATMFIVSI
chain 2: LNFRAPPVIPNVPFLWAWNAPSEFCLGKFDEPLDMSLFSFIGSPRINATGQGVTIFYVDRLGYYPYIDSITGVTVNGGIPQKISLQDHLDKAKKDITFYMPVDNLGMAVIDWEEWRPTWARNWKPKDVYKNRSIELVQQQNVQLSLTEATEKAKQEFEKAGKDFLVETIKLGKLLRPNHLWGYYLFPDCYNHHYKKPGYNGSCFNVEIKRNDDLSWLWNESTALYPSIYLNTQQSPVAATLYVRNRVREAIRVSKIPDAKSPLPVFAYTRIVFTDQVLKFLSQDELVYTFGETVALGASGIVIWGTLSIMRSMKSCLLLDNYMETILNPYIINVTLAAKMCSQVLCQEQGVCIRKNWNSSDYLHLNPDNFAIQLEKGGKFTVRGKPTLEDLEQFSEKFYCSCYSTLSCKEKADVKDTDAVDVCIADGVCIDAFLKPPMETEEPQIFYNASPSTLSATMFIVSI
modifications: HuPH20 precursor 1-498; Mature HuPH20 36-498
Turning to B2, the “Expressed in Media Following Addition of PI-PLC” value with CHO-S cells [1] is listed as “Initially in media”. In the data set on CHO-S cells [2], the “Expressed in Media” value is given as “YES”. Further, in data set [3] (Table 6A), the “pH 5.5 Activity” value is reported as 0.203 Units/ml and the “pH 7.4 Activity” value was determined as 0.527 Units/ml. The “Hyaluronidase activity (in words)” value in data set [3] was “little detectable activity”. Also, the Soluble entry in data set [4] is listed as “YES”.
